Laboratory results from patent publication US20210309709A1 (AKSTON BIOSCIENCES, published 2021).

The binders below were run against T1, biotinylated human complement component C1q (Sigma-Aldrich) (human, UniProt P02745 23-245; P02746 28-253; P02747 29-245) (assay: ELISA, fusion coated, biotinylated human C1q at 1000 ng/mL).
T1 construct: Sigma-Aldrich', a protein complex; also called complement component 1q; biotinylated-C1q
T1 sequence (P02745 23-245 limits assumed, chain 1 of 3): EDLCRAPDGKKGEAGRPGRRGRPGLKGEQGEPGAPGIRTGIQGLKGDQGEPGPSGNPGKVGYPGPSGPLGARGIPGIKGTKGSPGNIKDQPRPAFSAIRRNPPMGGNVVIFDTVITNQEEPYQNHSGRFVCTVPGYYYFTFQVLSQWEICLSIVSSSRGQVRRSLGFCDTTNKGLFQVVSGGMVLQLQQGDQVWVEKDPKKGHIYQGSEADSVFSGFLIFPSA
T1 sequence (P02746 28-253 limits assumed, chain 2 of 3): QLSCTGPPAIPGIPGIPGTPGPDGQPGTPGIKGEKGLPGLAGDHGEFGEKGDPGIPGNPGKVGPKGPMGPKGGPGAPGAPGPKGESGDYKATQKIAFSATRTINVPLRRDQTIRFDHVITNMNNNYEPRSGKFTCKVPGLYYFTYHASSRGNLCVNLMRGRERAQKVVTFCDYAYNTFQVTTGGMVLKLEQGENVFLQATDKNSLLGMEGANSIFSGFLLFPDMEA
T1 sequence (P02747 29-245 limits assumed, chain 3 of 3): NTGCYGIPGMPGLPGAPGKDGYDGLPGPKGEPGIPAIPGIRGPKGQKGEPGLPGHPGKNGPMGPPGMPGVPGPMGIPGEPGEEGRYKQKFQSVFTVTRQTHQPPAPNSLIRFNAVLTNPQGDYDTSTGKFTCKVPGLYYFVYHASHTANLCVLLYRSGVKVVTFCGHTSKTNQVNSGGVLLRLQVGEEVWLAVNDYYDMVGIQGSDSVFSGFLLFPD

Row | Binder | OD450 Ratio to SEQ ID NO: 76
1 | insulin-Fc fusion protein of SEQ ID NO: 75 (Fc fusion, HEK293, Protein A; also called hIgG2) FVNQHLCGSHLVEALELVCGERGFHYGGGGGGSGGGGGIVEQCCTSTCSLDQLENYCGGGGGQGGGGQGGGGQGGGGGECPPCPAPPVAGPSVFLFPPKPKDTLMISRTPEVTCVVVDVSHEDPEVQFNWYVDGVEVHNAKTKPREEQFNSTFRVVSVLTVVHQDWLNGKEYKCKVSNKGLPAPIEKTISKTKGQPREPQVYTLPPSREEMTKNQVSLTCLVKGFYPSDIAVEWESNGQPENNYKTTPPMLDSDGSFFLYSKLTVDKSRWQQGNVFSCSVMHEALHNHYTQKSLSLSPG | 0.309 ratio

What follows are binders tested against T2, biotinylated recombinant human Fc(gamma)RI (R&D Systems) (human, UniProt P12314 16-288) (assay: ELISA, fusion coated, biotinylated rhFc(gamma)RI at 3000 ng/mL).
T2 construct: soluble in ELISA; also called rhFc(gamma)RI; Fc(gamma) receptor I
T2 sequence (P12314 16-288 limits assumed): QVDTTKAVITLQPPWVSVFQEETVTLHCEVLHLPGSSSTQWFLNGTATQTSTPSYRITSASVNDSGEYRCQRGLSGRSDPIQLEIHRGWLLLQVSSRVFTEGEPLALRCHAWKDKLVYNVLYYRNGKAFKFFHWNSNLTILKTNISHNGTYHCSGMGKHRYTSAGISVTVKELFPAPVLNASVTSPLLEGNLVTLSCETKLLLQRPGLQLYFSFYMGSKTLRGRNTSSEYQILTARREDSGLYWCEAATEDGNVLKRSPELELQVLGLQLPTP
Description: (§1) The binding of insulin-Fc fusion proteins to the Fc(gamma)RI at pH 7.4 is conducted using an ELISA assay as follows using human Fc(gamma)RI (i.e., rhFc(gamma)RI). Insulin-Fc fusion proteins are diluted to 10 μg/mL in sodium bicarbonate buffer at pH 9.6 and coated on Maxisorp (Nunc) microtiter plates overnight at 4° C., after which the microplate strips are washed 5 times with PBST (PBS/0.05% Tween-20) buffer and blocked with Superblock blocking reagent (ThermoFisher). Serial dilutions of biotinylated rhFc(gamma)RI (recombinant human Fc(gamma)RI; R&D Systems) are prepared in PBST/10% Superblock buffer from 3000 ng/mL to 4.1 ng/mL and loaded at 100 μL/well onto the microplate strips coated with insulin-Fc fusion protein. The microtiter plate is incubated for 1 hour at room temperature after which time the microplate strips are washed 5 times with PBST and then loaded with 100 μL/well of streptavidin-HRP diluted 1:10000 in PBST/10% Superblock buffer. After incubating for 45 min, the microplate strips are washed again 5 times with PBST. TMB is added to reveal the bound Fc(gamma)RI proteins and is stopped with ELISA stop reagent (Boston Bioproducts). The plate is read in an ELISA plate reader at 450 nm, and the OD450 values (proportional to the binding of rhFc(gamma)RI to insulin-Fc protein) are plotted against log concentrations of rhFc(gamma)RI added to each well to generate binding curves using GraphPad Prism software. For groupings of compounds with somewhat similar curves, the OD450 at one of the higher concentrations, for instance at rhFc(gamma)RI concentrations of 3000 ng/mL, can be used to identify differences between coated insulin-Fc fusion protein compounds. […]
Finally, select compounds were tested for their likelihood to interact with the immune system by measuring their Fc(gamma) receptor binding activity according to the procedure of Example 15.

Row | Binder | OD450 nm | OD450 nm minus assay background | ratio to SEQ ID NO: 36
2 | insulin-Fc fusion protein of SEQ ID NO: 36 (Fc fusion, native N-glycosylation site cNg-NB139, HEK293, Protein A) FVNQHLCGSDLVEALALVCGERGFFYTDPTGGGPRRGIVEQCCHSICSLYQLENYCNGGGGAGGGGDCPKCPAPEMLGGPSVFIFPPKPKDTLLIARTPEVTCVVVDLDPEDPEVQISWFVDGKQMQTAKTQPREEQFNGTYRVVSVLPIGHQDWLKGKQFTCKVNNKALPSPIERTISKARGQAHQPSVYVLPPSREELSKNTVSLTCLIKDFFPPDIDVEWQSNGQQEPESKYRTTPPQLDEDGSYFLYSKLSVDKSRWQRGDTFICAVMHEALHNHYTQESLSHSPG | 0.428 OD450 | 0.371 OD450 | 1 ratio
3 | insulin-Fc fusion protein of SEQ ID NO: 58 (Fc fusion, purified on Protein A or Protein G) FVNQHLCGSHLVEALELVCGERGFHYGGGGGGSGGGGGIVEQCCTSTCSLDQLENYCGGGGGQGGGGQGGGGQGGGGGRCTDTPPCPVPEPLGGPSVLIFPPKPKDILRITRTPEVTCVVLDLGREDPEVQISWFVDGKEVHTAKTQSREQQFNGTYRVVSVLPIEHQDWLTGKEFKCRVNHIDLPSPIERTISKARGRAHKPSVYVLPPSPKELSSSDTVSITCLIKDFYPPDIDVEWQSNGQQEPERKHRMTPPQLDEDGSYFLYSKLSVDKSRWQQGDPFTCAVMHETLQNHYTDLSLSHSPG | 0.253 OD450 | 0.196 OD450 | 0.53 ratio
4 | insulin-Fc fusion protein of SEQ ID NO: 26 (Fc fusion, native N-glycosylation site cNg-NB151) FVNQHLCGSHLVEALELVCGERGFHYGGGGGGSGGGGGIVEQCCTSTCSLDQLENYCGGGGGQGGGGQGGGGQGGGGGDCPKCPAPEMLGGPSVFIFPPKPKDTLLIARTPEVTCVVVDLDPEDPEVQISWFVDGKQMQTAKTQPREEQFNGTYRVVSVLPIGHQDWLKGKQFTCKVNNKALPSPIERTISKARGQAHQPSVYVLPPSREELSKNTVSLTCLIKDFFPPDIDVEWQSNGQQEPESKYRTTPPQLDEDGSYFLYSKLSVDKSRWQRGDTFICAVMHEALHNHYTQESLSHSPG | 0.368 OD450 | 0.311 OD450 | 0.84 ratio
5 | insulin-Fc fusion protein of SEQ ID NO: 62 (Fc fusion, also called cNg-NB151-S) FVNQHLCGSHLVEALELVCGERGFHYGGGGGGSGGGGGIVEQCCTSTCSLDQLENYCGGGGGQGGGGQGGGGQGGGGGDCPKCPAPEMLGGPSVFIFPPKPKDTLLIARTPEVTCVVVDLDPEDPEVQISWFVDGKQMQTAKTQPREEQFSGTYRVVSVLPIGHQDWLKGKQFTCKVNNKALPSPIERTISKARGQAHQPSVYVLPPSREELSKNTVSLTCLIKDFFPPDIDVEWQSNGQQEPESKYRTTPPQLDEDGSYFLYSKLSVDKSRWQRGDTFICAVMHEALHNHYTQESLSHSPG | 0.175 OD450 | 0.118 OD450 | 0.32 ratio
6 | insulin-Fc fusion protein of SEQ ID NO: 30 (Fc fusion) FVNQHLCGSHLVEALALVCGERGFHYGGGGGGSGGGGGIVEQCCTSTCSLDQLENYCGGGGGQGGGGQGGGGQGGGGGDCPKCPAPEMLGGPSVFIFPPKPKDTLLIARTPEVTCVVVDLDPEDPEVQISWFVDGKQMQTAKTQPREEQFSGTYRVVSVLPIGHQDWLKGKQFTCKVNNKALPSPIERTISKARGQAHQPSVYVLPPSREELSKNTVSLTCLIKDFFPPDIDVEWQSNGQQEPESKYRTTPPQLDEDGSYFLYSKLSVDKSRWQRGDTFICAVMHEALHNHYTQESLSHSPG | 0.177 OD450 | 0.12 OD450 | 0.32 ratio
7 | insulin-Fc fusion protein of SEQ ID NO: 61 (Fc fusion, also called cNg-NB151-S, NB119-A) FVNQHLCGSHLVEALELVCGERGFHYGGGGGGSGGGGGIVEQCCTSTCSLDQLENYCGGGGGQGGGGQGGGGQGGGGGDCPKCPAPEMLGGPSVFIFPPKPKDTLLIARTPEVTCVVVALDPEDPEVQISWFVDGKQMQTAKTQPREEQFSGTYRVVSVLPIGHQDWLKGKQFTCKVNNKALPSPIERTISKARGQAHQPSVYVLPPSREELSKNTVSLTCLIKDFFPPDIDVEWQSNGQQEPESKYRTTPPQLDEDGSYFLYSKLSVDKSRWQRGDTFICAVMHEALHNHYTQESLSHSPG | 0.166 OD450 | 0.109 OD450 | 0.29 ratio

Biological target: T2, biotinylated recombinant human …
Assay: as above
Remark: another data set of the same source
Description: The binding of insulin-Fc fusion proteins to the Fc(gamma)RI at pH 7.4 was conducted using an ELISA assay as follows using human Fc(gamma)RI (i.e., rhFc(gamma)RI). Insulin-Fc fusion proteins were diluted to 10 μg/mL in sodium bicarbonate buffer at pH 9.6 and coated on Maxisorp (Nunc) microtiter plates overnight at 4° C., after which the microplate strips were washed 5 times with PBST (PBS/0.05% Tween-20) buffer and blocked with Superblock blocking reagent (ThermoFisher). […] The plate was read in an ELISA plate reader at 450 nm, and the OD450 values (proportional to the binding of rhFc(gamma)RI to insulin-Fc protein) were plotted against log concentrations of rhFc(gamma)RI added to each well to generate binding curves using GraphPad Prism software. […] In order to compare differences across multiple insulin-Fc fusion proteins run at different times, the human Fc(gamma)RI assay OD450 Ratio was calculated as the OD450 value of a test insulin-Fc fusion protein compound obtained at a biotinylated-Fc(gamma)RI concentration of 3000 ng/mL, divided by the OD450 value of a reference insulin-Fc fusion protein of SEQ ID NO: 76 obtained at a biotinylated-Fc(gamma)RI concentration of 3000 ng/mL.

Row | Binder | OD450 Ratio to SEQ ID NO: 76
8 | insulin-Fc fusion protein of SEQ ID NO: 75 (Fc fusion, HEK293, Protein A; also called hIgG2) FVNQHLCGSHLVEALELVCGERGFHYGGGGGGSGGGGGIVEQCCTSTCSLDQLENYCGGGGGQGGGGQGGGGQGGGGGECPPCPAPPVAGPSVFLFPPKPKDTLMISRTPEVTCVVVDVSHEDPEVQFNWYVDGVEVHNAKTKPREEQFNSTFRVVSVLTVVHQDWLNGKEYKCKVSNKGLPAPIEKTISKTKGQPREPQVYTLPPSREEMTKNQVSLTCLVKGFYPSDIAVEWESNGQPENNYKTTPPMLDSDGSFFLYSKLTVDKSRWQQGNVFSCSVMHEALHNHYTQKSLSLSPG | 0.045 ratio

These binders were tested against T2, biotinylated recombinant human … (assay: ELISA, fusion coated, biotinylated rhFc(gamma)RI (concentration not clear from the table head)).
Description: as §1

Row | Binder | OD450 nm | OD450 nm minus assay background | ratio to SEQ ID NO: 36
9 | insulin-Fc fusion protein of SEQ ID NO: 36 (Fc fusion, native N-glycosylation site cNg-NB139, HEK293, Protein A) FVNQHLCGSDLVEALALVCGERGFFYTDPTGGGPRRGIVEQCCHSICSLYQLENYCNGGGGAGGGGDCPKCPAPEMLGGPSVFIFPPKPKDTLLIARTPEVTCVVVDLDPEDPEVQISWFVDGKQMQTAKTQPREEQFNGTYRVVSVLPIGHQDWLKGKQFTCKVNNKALPSPIERTISKARGQAHQPSVYVLPPSREELSKNTVSLTCLIKDFFPPDIDVEWQSNGQQEPESKYRTTPPQLDEDGSYFLYSKLSVDKSRWQRGDTFICAVMHEALHNHYTQESLSHSPG | 0.386 OD450 | 0.323 OD450 | 1 ratio
10 | insulin-Fc fusion protein of SEQ ID NO: 42 (Fc fusion, also called cNg-NB139-K; cNg-K) FVNQHLCGSDLVEALALVCGERGFFYTDPTGGGPRRGIVEQCCHSICSLYQLENYCNGGGGAGGGGDCPKCPAPEMLGGPSVFIFPPKPKDTLLIARTPEVTCVVVDLDPEDPEVQISWFVDGKQMQTAKTQPREEQFKGTYRVVSVLPIGHQDWLKGKQFTCKVNNKALPSPIERTISKARGQAHQPSVYVLPPSREELSKNTVSLTCLIKDFFPPDIDVEWQSNGQQEPESKYRTTPPQLDEDGSYFLYSKLSVDKSRWQRGDTFICAVMHEALHNHYTQESLSHSPG | 0.126 OD450 | 0.063 OD450 | 0.2 ratio
11 | insulin-Fc fusion protein of SEQ ID NO: 40 (Fc fusion, non-glycosylated canine IgGB Fc; also called cNg-NB139-S; cNg-S) FVNQHLCGSDLVEALALVCGERGFFYTDPTGGGPRRGIVEQCCHSICSLYQLENYCNGGGGAGGGGDCPKCPAPEMLGGPSVFIFPPKPKDTLLIARTPEVTCVVVDLDPEDPEVQISWFVDGKQMQTAKTQPREEQFSGTYRVVSVLPIGHQDWLKGKQFTCKVNNKALPSPIERTISKARGQAHQPSVYVLPPSREELSKNTVSLTCLIKDFFPPDIDVEWQSNGQQEPESKYRTTPPQLDEDGSYFLYSKLSVDKSRWQRGDTFICAVMHEALHNHYTQESLSHSPG | 0.14 OD450 | 0.077 OD450 | 0.24 ratio
12 | insulin-Fc fusion protein of SEQ ID NO: 41 (Fc fusion, also called cNg-NB139-D; cNg-D) FVNQHLCGSDLVEALALVCGERGFFYTDPTGGGPRRGIVEQCCHSICSLYQLENYCNGGGGAGGGGDCPKCPAPEMLGGPSVFIFPPKPKDTLLIARTPEVTCVVVDLDPEDPEVQISWFVDGKQMQTAKTQPREEQFDGTYRVVSVLPIGHQDWLKGKQFTCKVNNKALPSPIERTISKARGQAHQPSVYVLPPSREELSKNTVSLTCLIKDFFPPDIDVEWQSNGQQEPESKYRTTPPQLDEDGSYFLYSKLSVDKSRWQRGDTFICAVMHEALHNHYTQESLSHSPG | 0.204 OD450 | 0.141 OD450 | 0.44 ratio
